Results from the nanobody polyreactivity screen of Harvey et al. (2022).

Assay: yeast display, Sf9 membrane polyspecificity reagent, FACS + sequencing; frameworks hold sequencing errors
Outline: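 A nanobody's polyreactivity label depends on the gate it was sorted from. Yeast display cells were stained with 10% biotinylated, detergent-solubilized Sf9 membrane reagent for 1 hour at 4 °C, enriched on streptavidin microbeads and sorted by FACS. The low and high (top ~1%) gates were set on anti-HA fluorescence for expression and streptavidin fluorescence for reagent binding.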

Row | Sequence | polyreactivity (PSR sort gate)
1 | QVQLVESGGGLVQAGGSLRLSCADSGRTFRIYAMGLYIQAPGKERELVAAITRRGGSTYYADSVKGRFTISRDNAKNTVYLQMNSLKPEDTAVYYCAADLRYGYLYPYDSWGQGTQVTVSS | high polyreactivity
2 | QVQLVESGGGLVQAGGSLRLSCADSGRTFSYNTMGWYRQATGKERELVARITWGGGSTYYADSVKGRFTISRDNAKNTVYLQMNSLKPEDTAVYYCNADLRELSPWYWYSGEMDYWGQGTQVTVSS | low polyreactivity
3 | QVQLVESGGGLVQAGGSLRLSCADSGRTFTRYAMGWYRQAPGKERELVAAISYIGGGTYYADSVKGRFTISRDNAKNTVYLQMNSLKPEDTAVYYCAGYSRQAEYEYWGQGTQVTVSS | high polyreactivity
4 | QVQLVESGGGLVQAGGSLRLSCADSGRTFVGNAMGWSRQAPGKERELVAAITSRTGSTYYADSVKGRFTISRDNAKNTVYLQMTSLTPEDTAVYYCATPYYQNVYSRKAYTYWGQGTQVTVSS | high polyreactivity
5 | QVQLVESGGGLVQAGGSLRLSCADSGRTSRVYAMGWYRQEPAKERELVAAITWRGGNTYYADSVKGRFTISRDNAKNTVYLQMNSLKPEDTAVYYCAADPLSYGSWHGDSWGQGTQVTLSS | high polyreactivity
6 | QVQLVESGGGLVQAGGSLRLSCADSGSIFAYYARGWYRQAPGKERELVAAISQSGGSTYYAYSVKGRFTISRDTAKNTVYLQMNSLKPEDTAVYYCAARFRYGYTGYRYDYWGQGTQVTVSS | high polyreactivity
7 | QVQLVESGGGLVQAGGSLRLSCADSGSIFSYYAMGWYRQEPGKARELVASISRTGVSTHYADSVKGRFTISRDNAKNTVYLQMNSLKPEDNAVYYCNAKYLTWSYRYYYWGQGTQVTVSS | high polyreactivity
8 | QVQLVESGGGLVQAGGSLRLSCADSGSIFVWNDMGWYRQAPGKEREFVAAITSRDGSTYYADSVKGRFTISRDTAKNTVYLQMTSLKPEDTAVYYCAARLRVTGFYSRTRYYWGQGTQVTVAS | low polyreactivity
9 | QVQLVESGGGLVQAGGSLRLSCADSGSTFDYPMGWYRQAPGKERELVASITFSTGSTYYADSVKGRFTISRDNAKNTVYLQMNSLKPEDTAVYYCATGVDTYSLTVEHDSWVQGTQVTVSS | low polyreactivity
10 | QVQLVESGGGLVQAGGSLRLSCADSGSTFNSYAMGWYRQAPGKERELVAAITHRGSTYYADSVKGRFTISLDNAKNTVYLQMNSLKPEDTAVDYCNVRRIGNGRRVDYWGQGTQVTVSS | high polyreactivity
11 | QVQLVESGGGLVQAGGSLRLSCADSGSTFRRYAMGWYRQAPGKERELVAAISWSGGSTYYADSVKGRFTISRDNAKNTVYLQMKSLKPEDTAVYYCAARGVTSYWQDYDYWGQGTQVTVSS | low polyreactivity
12 | QVQLVESGGGLVQAGGSLRLSCADSGSTFRRYTMGWYRQAPGKERELVASITRSGGSKYYADSVKGRFTISRDNAKNTVYLQMNSLKPEDTAVYFCNKLSGYGWRSYGYWGQGTQVTVSS | high polyreactivity
13 | QVQLVESGGGLVQAGGSLRLSCADSGSTSYDYAMGWYRQAPGKERELVAAISGSSSTTYYADSVKGRFTISRDNAKNTVYLQMNSLKPEDTAVYYCNAVTTTGSGYGYWGQGTQVTVSS | low polyreactivity
14 | QVQLVESGGGLVQAGGSLRLSCADSGSTSYRYAMGRYRQSPGKERELVAVITSGSSTYYADSVKGRFTISRDNAKNTDYLQINSLKPEDTAVYYCAVGRTYRRYSAASYNYWGQGTQVTVSS | high polyreactivity
15 | QVQLVESGGGLVQAGGSLRLSCAGSGFTFGYYAMGWSRPAPGKERELVAAMSWNGGRTYYADSVKGRFTISRDNAKNTVYLQLNSLKPEDTAVYSCAADYRFYSPTKYSYDDWGQGTQVTVSS | high polyreactivity
16 | QVQLVESGGGLVQAGGSLRLSCAGSGFTFIIYAMGWYREAPGKERELVAAITRSGGSTYYADSVKGRFTISRDNAKNTVYLQMNSLKPEDTAVYYCAAALSVRFYFWGQGTQVTVSS | high polyreactivity
17 | QVQLVESGGGLVQAGGSLRLSCAGSGFTFSSYTIGWYRQAPGKEREFVASISSGGSTNYADSVKGRFTISRDNAKNTVYLQMNSLKPEDTAVYYCAAGTTGITFFDVGSGYDYWGQGTQVTVSS | low polyreactivity
18 | QVQLVESGGGLVQAGGSLRLSCAGSGFTLGSNAMGWYRQAPGKERELVAVISGSGGSTYYADSVKGRFTISRDNAKNTVYLQMNSLKPEDTAVYYCAAQYSAGQYYGYGYWGQGTQVTVSS | high polyreactivity
19 | QVQLVESGGGLVQAGGSLRLSCAGSGHIFRQYAMGWYRQAPGKERELVAAITSGGSTYYADSVKGRFTISRDNAKNTVYLQMNSLKPEDTAVYYCATRPGGDRPIGYDYWGQGTQVTVSS | low polyreactivity
20 | QVQLVESGGGLVQAGGSLRLSCAGSGRIFDLYTMGWYRQAPGKERELVAAIRWSDGSTYYADSVKGRFTISRDNAKNTVYLQINSLKPEDTAVYYCAADTRTSYYNDDYDYWGQGTQVTVSS | low polyreactivity
21 | QVQLVESGGGLVQAGGSLRLSCAGSGRILVQNDMGWYRQAPGNESELVAAIRSDGSTSYADSVKGRFTISRDNAKYTVYLQMNSLKPEDTAVYYCAARIDWTGGYYDYWGQGTQVTVSS | low polyreactivity
22 | QVQLVESGGGLVQAGGSLRLSCAGSGRTFVYYAMGWYRQAPGREREFVAAISRSGGRTSYADSVKGRFTISRDNAKNTVYLHMNSLKPEDTAVNYCAAEKRTQPTSREYYWGQGTQVTVSS | high polyreactivity
23 | QVQLVESGGGLVQAGGSLRLSCAGSGRTVANNAMGWYRQAPGKERELVAAISNGDSPYADSVKGRFTISRDNAKNTVYLQLNSLKPEDTAVYYCATRTQEDYTGDYWGQGTQVTVSS | low polyreactivity
24 | QVQLVESGGGLVQAGGSLRLSCAGSGSIFGEYVMGCYRQATVKERELVADISWRDGDTYYADSVKGRFTISRDNAKNTVYLQMNSLKPEDTAVYYFAADVIVPESYGYWPLSYYYLGQGTQVTVSS | low polyreactivity
25 | QVQLVESGGGLVQAGGSLRLSCAGSGSIFSIYAMGWYRQAPGKERELVAAIRYDGGSTYYADSVKGRFTISRDNAKNTVYLQMNSLKPEDTAVYYCAAKVYFRRRGLHPYDYWGQGTQVNVSS | low polyreactivity
26 | QVQLVESGGGLVQAGGSLRLSCAGSGSSFSNYAMRGYRQATGKERELVAVITTGASTYYADSLKGRFTISRDNAKNTVYLQLNSLKPEDSAVYACAKGKISRETPGIYWSYSYGYWGQGTQVTVSS | high polyreactivity
27 | QVQLVESGGGLVQAGGSLRLSCAGSGSTFGRYAMGWYRQAPGKERELVAAITSDTGNTNYADSVKGRFTISRDNAKNTVYLQMNSLKPEDTAVYYCAAATFWVLWGHVIGNYDSWGQGTQVTVSS | low polyreactivity
28 | QVQLVESGGGLVQAGGSLRLSCAGSGSTFRSNAMGWYRQAPGKERELVAAISQRGGSTYYADSVKGRFTISRDNAKNTVYLQMNSLKPEDTAVYYCAARLYRGWRPFYYWGQGTQVSVSS | high polyreactivity
29 | QVQLVESGGGLVQAGGSLRLSCAGYGSIFWWYPMVWYRQAPGKERELVASISWSGTSTYYADSVKGRFTISRDNAKNTVYLQMNSLKPEDTAVYYCNADVYWPGTPYTHDYWGQGTQVTVSS | low polyreactivity
30 | QVQLVESGGGLVQAGGSLRLSCAPSGFIFRLNGMGWYIQAPGKERELVATIDSGSSTNYADSVKGRFTISRDNAKNTVYLQMNSLKPEDTAVYYCAAVVISYYTHGDYDYWGQGTQVTVSS | low polyreactivity
